For assay [1], the target named is XIAP (Homo sapiens, UniProt P98170). The assay is described as follows: In vitro PGAM5 ubiquitination assay with XIAP. The class given is biochemical. Particulars: 50 nM UBE1, 200 nM UbcH5b, 700 nM XIAP, 1.5 μM PGAM5-His6. The source says:
FIG. 12 illustrates the identification of the proteolytic form of PGAM5 as an XIAP and cIAP1 substrate in vitro. […] Overall, 15 unique peptides from PGAM5 were recovered and account for 43% of the entire protein sequence. (B) An example of LC-MS/MS spectrum from endogenous PGAM5 N-terminal peptide after subtiligase labeling and positive enrichment. A non-natural amino acid, 2-aminobutyric acid (Abu), is a designed tag showing characteristic labeling by subtiligase. (C) PGAM5 is cleaved into a truncated form in cells. Jurkat cells were transiently transfected with C-terminal Myc tagged full length PGAM5 or PGAM5 (Δ2-24). […] (D) N-terminal amino acid sequence alignment of PGAM5(Δ24) and other known evolutionarily conserved IBM sequences. Reaper, Hid, and Grim are Drosophila proteins that bind DIAP1, the Drosophila IAP. Amino acids are colored according to their chemical properties. (E) XIAP binds PGAM5(Δ24) but not the full length PGAM5. Recombinant GST fused XIAP, PGAM5(FL), and PGAM5(Δ24) were used for in vitro GST pull down experiments. (F) PGAM5(Δ24) binds to XIAP and cIAP1 independent of the RING domain. […] The resins were washed and proteins were eluted and analyzed with SDSPAGE and coomassie blue staining. […] The ubiquitination assay was performed in vitro and PGAM5 is detected with an anti-His antibody. […]

In another assay the target is T1, GST-XIAP (Homo sapiens, UniProt P98170).
T1 construct: made in house
In words: In vitro GST pull down. The class given is binding. Particulars: recombinant proteins. An excerpt:
FIG. 12 illustrates the identification of the proteolytic form of PGAM5 as an XIAP and cIAP1 substrate in vitro. […] Overall, 15 unique peptides from PGAM5 were recovered and account for 43% of the entire protein sequence. (B) An example of LC-MS/MS spectrum from endogenous PGAM5 N-terminal peptide after subtiligase labeling and positive enrichment. A non-natural amino acid, 2-aminobutyric acid (Abu), is a designed tag showing characteristic labeling by subtiligase. (C) PGAM5 is cleaved into a truncated form in cells. Jurkat cells were transiently transfected with C-terminal Myc tagged full length PGAM5 or PGAM5 (Δ2-24). […] (D) N-terminal amino acid sequence alignment of PGAM5(Δ24) and other known evolutionarily conserved IBM sequences. Reaper, Hid, and Grim are Drosophila proteins that bind DIAP1, the Drosophila IAP. Amino acids are colored according to their chemical properties. (E) XIAP binds PGAM5(Δ24) but not the full length PGAM5. Recombinant GST fused XIAP, PGAM5(FL), and PGAM5(Δ24) were used for in vitro GST pull down experiments. (F) PGAM5(Δ24) binds to XIAP and cIAP1 independent of the RING domain. […] The resins were washed and proteins were eluted and analyzed with SDSPAGE and coomassie blue staining. […] The ubiquitination assay was performed in vitro and PGAM5 is detected with an anti-His antibody.

In assay [2] the target is T2, XIAP (Homo sapiens, UniProt P61081+P98170).
T2 construct: The N-terminus (residues 1-434) of XIAP was then fused via a flexible Gly-Gly-Ser-Gly linker to the NEDD8 E2, Ubc12; GST (N, cleaved yes); made in house; host or cells: E. coli BL21 (DE3)
In words: SILAC mass spectrometry screen for XIAP substrates with NEDDylator^XIAP in apoptotic Jurkat cell lysate. The class given is biochemical. Particulars: Heavy lysate with Ubc12. On the procedure: Jurkat cells were grown in media containing either light or heavy isotopes of lysine and arginine and induced to undergo apoptosis with STS. Light cell extracts were incubated with the respective catalytic tagging system for each of the two IAPs and the heavy extracts labeled only with the wild-type NEDD8 E2, Ubc12. 64 mg regular L-Lys and 83.6 mg L-Arg.HCl were added to 1 liter RPMI-1640 minus L-Lys and L-Arg (Thermo/Pierce), 10% fetal bovine serum (FBS) to generate “Light” medium. 100 mg ^13C6^15N2 L-Lys.2HCl and 86 mg ^13C6 L-Arg.HCl (Cambridge Isotope) were added to the same amount of medium to generate the “Heavy” medium. Jurkat cells were cultured separately in “Light” or “Heavy” medium for 7 days to allow for thorough isotope incorporation. For IAP substrate identification, 400 million cells were treated with 2 μM STS for 4 hours, harvested, lysed in M-PER mammalian protein extraction buffer (Thermo/Pierce) in the presence of protease inhibitors (100× ProteoBlock cocktail, Fermentas) and mixed with cell lysate prepared from 400 million untreated cells. The NEDDylated proteins were isolated under denaturing conditions via the HB-NEDD8 tag using a tandem affinity pull down procedure (Tagwerker et al., Mol Cell Proteomics 5:737-748 (2006)) (FIG. 11). Purified NEDDylated proteins were trypsinized and analyzed with tandem mass spectrometry (LC-MS/MS).
For SILAC experiments, Jurkat cells were cultured separately in “Light” (supplemented with regular Lys and Arg) or “Heavy” (supplemented with ^13C6^15N2 Lys and ^13C6 Arg) medium for 7 days to allow for thorough isotope incorporation. Apoptotic “Light” and “Heavy” cell extracts were prepared individually. The lysates were cleared by spinning and then diluted in 50 mM HEPES pH 7.4, 150 mM NaCl to 5 mg/ml and supplemented with 5 mM ATP, 10 mM MgCl2. Endogenous NEDD8 E1 is cell lysate was used to catalyze the reaction. HB-NEDD8 was added to both lysate at mass ratio 1:500; the catalytic tagging system was added to the “Light” lysate at mass ratio 1:1000. Equal molar of Ubc12 was added to the “Heavy” lysate. […] NEDDylated proteins were separated by one-dimensional SDS-PAGE, and trypsinized for LC-MS/MS analysis.
For liquid chromatography—Tandem mass spectrometry (LC-MS/MS) analysis, the tryptic peptides were first desalted and concentrated with a C18 Ziptip (Millipore). LC-MS/MS was carried out by reverse phase LC interfaced with a LTQ-Orbitrap (ThermoFisher Scientific) hybrid mass spectrometer. A nanoflow HPLC (NanoAcquity UPLC system, Waters Corporation) was equipped with a trap column (180 μm×20 mm, 5 μm SymmetryC18, from Waters) and an analytical column (100 μm×100 mm, 1.7 μm BEH130C18, from Waters). […]

T1 sequence (P98170 whole entry): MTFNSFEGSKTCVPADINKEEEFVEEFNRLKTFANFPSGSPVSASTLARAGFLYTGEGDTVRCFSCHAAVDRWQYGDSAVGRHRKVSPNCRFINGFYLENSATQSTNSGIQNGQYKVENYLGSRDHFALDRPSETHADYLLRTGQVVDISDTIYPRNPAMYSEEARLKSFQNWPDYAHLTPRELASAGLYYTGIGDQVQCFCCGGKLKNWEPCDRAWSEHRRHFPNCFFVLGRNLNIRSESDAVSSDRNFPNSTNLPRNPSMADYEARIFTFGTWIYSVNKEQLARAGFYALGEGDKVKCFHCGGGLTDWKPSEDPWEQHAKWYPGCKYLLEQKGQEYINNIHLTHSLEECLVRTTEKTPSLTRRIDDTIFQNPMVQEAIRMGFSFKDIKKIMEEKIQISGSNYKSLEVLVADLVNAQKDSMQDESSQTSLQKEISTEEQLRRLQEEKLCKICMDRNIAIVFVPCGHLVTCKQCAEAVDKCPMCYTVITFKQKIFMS
Chain of XIAP (Homo sapiens, UniProt P98170) (P98170 whole entry, the tested form may be a part): as the sequence (P98170 whole entry) above
T2 sequence (P98170+P61081 fused): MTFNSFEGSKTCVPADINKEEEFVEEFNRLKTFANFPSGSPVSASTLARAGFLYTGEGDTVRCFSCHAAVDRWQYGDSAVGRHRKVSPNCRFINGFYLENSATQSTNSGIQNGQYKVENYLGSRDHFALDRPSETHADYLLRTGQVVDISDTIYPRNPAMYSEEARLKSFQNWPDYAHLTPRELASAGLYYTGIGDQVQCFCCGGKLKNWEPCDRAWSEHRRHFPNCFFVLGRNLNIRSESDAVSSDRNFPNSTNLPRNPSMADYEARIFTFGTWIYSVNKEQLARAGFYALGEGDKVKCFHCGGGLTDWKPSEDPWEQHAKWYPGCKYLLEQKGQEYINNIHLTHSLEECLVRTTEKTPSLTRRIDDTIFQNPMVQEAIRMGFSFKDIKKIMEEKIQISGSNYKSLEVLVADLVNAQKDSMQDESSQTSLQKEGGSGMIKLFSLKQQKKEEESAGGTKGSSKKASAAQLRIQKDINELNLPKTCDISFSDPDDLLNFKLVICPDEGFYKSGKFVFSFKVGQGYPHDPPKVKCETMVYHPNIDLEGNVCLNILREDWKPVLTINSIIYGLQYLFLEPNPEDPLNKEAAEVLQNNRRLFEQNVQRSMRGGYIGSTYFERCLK

B1: Serine/threonine-protein phosphatase PGAM5, mitochondrial: phosphoglycerate mutase family member 5, dimeric protein phosphatase (protein, UniProt Q96HS1 1-289, looked up)
chain: MAFRQALQLAACGLAGGSAAVLFSAVAVGKPRAGGDAEPRPAEPPAWAGGARPGPGVWDPNWDRREPLSLINVRKRNVESGEEELASKLDHYKAKATRHIFLIRHSQYHVDGSLEKDRTLTPLGREQAELTGLRLASLGLKFNKIVHSSMTRAIETTDIISRHLPGVCKVSTDLLREGAPIEPDPPVSHWKPEAVQYYEDGARIEAAFRNYIHRADARQEEDSYEIFICHANVIRYIVCRALQFPPEGWLRLSLNNGSITHLVIRPNGRVALRTLGDTGFMPPDKITRS
modifications: full-length
notes: phosphoglycerate mutase family member 5, dimeric protein phosphatase
Take B1: in the assay with XIAP [1], the “ubiquitination by XIAP” value is recorded as “not the full length protein”. Moreover, in the assay with GST-XIAP, the “binding to XIAP (pull down)” value is listed as “not the full length PGAM5 was pulled down”. The “L/H (Light/Heavy ratio)” value with XIAP [2] was 5.88.

These data come from patent publication US20150010525A1, “Catalytic Tagging System to Study Macro-Molecular Interactions Using Engineered Ubiquitin Ligase and Ubiquitin-Like Proteins to Facilitate Substrate Identification” (THE REGENTS OF THE UNIVERSITY OF CALIFORNIA, priority 2012, published 2015).
